Residual trypsin activity (hydrolysis of BApNA, absorbance and Ki data for one substance are collected here from publication PMC8758671.

For assay [1], the target named is porcine trypsin (porcine) (UniProt P00761).
For assay [2] the target is unchanged. Description: enzyme inhibition kinetics (double-reciprocal, Lineweaver-Burk plot); 0, 66.66 and 133.33 ηmol L^−1 rTcTI against 10 µg porcine trypsin, 15 min at 37 °C, then substrate BApNA at 0.04–0.42 (printed ηmol L^−1) in 240 µL; absorbance at 410 nm; quadruplicate; competitive inhibition.

Chain of UniProt P00761 (P00761 9-231): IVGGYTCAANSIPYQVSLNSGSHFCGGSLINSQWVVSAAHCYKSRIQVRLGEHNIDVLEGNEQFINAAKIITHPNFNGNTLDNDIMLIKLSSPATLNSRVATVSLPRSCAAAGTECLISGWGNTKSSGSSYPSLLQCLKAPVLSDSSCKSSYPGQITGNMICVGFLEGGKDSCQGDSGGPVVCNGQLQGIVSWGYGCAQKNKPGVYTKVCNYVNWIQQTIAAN

In general, Ki refers to a measure of affinity in units of concentration, obtained from inhibition or displacement. A higher Ki goes with a looser hold on the target. “recombinant Theobroma cacao trypsin inhibitor (rTcTI) (natural protein)”: the residual trypsin activity (hydrolysis of BApNA, absorbance at 410 nm) with rTcTI rising from 0.5 to 1.2 μmol L^−1; 70% at the lower concentration in assay [1] is 12%. This substance registered a Ki in assay [2] of 408 nM.
